T1: human C5a (human, UniProt P01031 678-751, biotinylated in the U937/C5aR ligand blocking assay (site not stated))
T1 sequence: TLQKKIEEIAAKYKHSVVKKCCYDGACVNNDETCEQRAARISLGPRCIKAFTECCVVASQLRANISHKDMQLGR


Legend:
human C5a [1] = target: T1, human C5a; assay: cell-based or functional assay
human C5a [2] = target: T1, human C5a; assay: cell-based or functional assay; remark: listed apart in the source
human C5 [3] = target: T2, human C5 (human, UniProt P01031 19-673; P01031 678-1676, limits assumed); assay: ELISA, antibody titrated on C5-coated plate
T2 construct: In the sheep RBC lysis assay, C5 is the C5 of normal human serum; also called huC5
Description: The anti-C5a constructs were further tested for their affinities to human C5 using ELISA. Off-target C5 binding reduces availability of anti-C5a antibodies (C5-mediated “sink effect”). […] Each data point was the mean of 2 replicates.

human C5a [4] = target: T1, human C5a; assay: ELISA, antibody titrated on C5a-coated plate
human C5 [5] = target: T2, human C5; assay: ELISA, affinity for human C5 against affinity for human C5a
human C5 [6] = target: T2, human C5; assay: BLI (Gator), percentage dissociation from human C5 at pH 5.8 over pH 7.4
Experimental: (§1) pH dependency of the humanized anti-C5a constructs were tested using C5 binding assays. A Biolayer interferometry instrument, Gator™ (Probe life Inc., USA) was used to determine pH dependent dissociation of histidine mutants and the benchmark antibodies. Briefly, anti-human IgG Fc (FHC) Probes were equilibrated in the kinetic (K) buffer of Phosphate-buffered saline containing 0.02% bovine serum albumin and 0.002% Tween20 pH 7.4. Antibodies were captured onto the sensors by dipping them into 200 μL of transfection supernatant for 600 s at pH 7.4. The biosensors were then incubated with human C5 prepared in the K buffer pH 7.4 (40 nM) for 600s followed by 600-second dissociation period in K Buffer, pH 7.4 or pH 5.8. The data were processed and analyzed by the Gator evaluation software.

human C5 [7] = target: T2, human C5; assay: BLI (Gator), antibody on anti-human IgG Fc probes, 40 nM human C5 bound 600 s at pH 7.4, 600 s dissociation at pH 5.8
Experimental: as §1

human C5 [8] = target: T2, human C5; assay: BLI (Gator), antibody on anti-human IgG Fc probes, 40 nM human C5 bound 600 s at pH 7.4, 600 s dissociation at pH 7.4
Experimental: as §1

human C5a [9] = target: T1, human C5a; assay: ligand blocking, flow cytometry: antibody titrated against 20 nM biotinylated human C5a binding to U937/C5aR cells, Experiment #1
Experimental: (§2) U937/C5aR cells were washed twice by PBS and suspended in assay buffer (PBS+0.1% BSA) at the density of 3×10⁶ cells/ml. […] 1000 rpm centrifuge for 3-5 min at 4° C., remove supernatant and cells were washed by pre-cold PBS twice. Add 100 μl FITC conjugated streptavidin (eBioscience) to cells and incubate on ice for another 30 min. Centrifuge at 4° C., remove supernatant and cells were washed by pre-cold PBS twice. Add 150 μl 0.5% PFA to suspend cells and detect the signal by FACS (Beckman, Cytoflex). IC₅₀ value was calculated by GraphPad Prism software.
(§3) Mean fluorescence intensities were measured at each antibody concentration. U937 cells without addition of antibodies was used as the low control.

human C5a [10] = target: T1, human C5a; assay: ligand blocking, flow cytometry: antibody titrated against 20 nM biotinylated human C5a binding to U937/C5aR cells, Experiment #2
Experimental: as §2, §3

cynomolgus antigen [11] = target: T3, cynomolgus antigen (cynomolgus); assay: SPR, scFv captured, cynomolgus antigen as analyte
T3 construct: also called cyno antigen; cynomolgus monkey C5a

human C5a [12] = target: T1, human C5a; assay: SPR, scFv captured via anti-c-myc/anti-His, 5 nM human antigen as analyte, 1:1 fit
cynomolgus antigen [13] = target: T3, cynomolgus antigen; assay: SPR, scFv captured via anti-c-myc/anti-His, 60 nM cynomolgus antigen as analyte, 1:1 fit
Experimental: The activator was prepared by mixing 400 mM EDC (1-ethyl-3-(3-dimethylaminopropyl) carbodiimide) and 100 mM NHS (N-hydroxysuccinimide) (GE) immediately prior to injection. The CMS sensor chip was activated for 600 s with the mixture at a flow rate of 10 μL/min. Mixture of anti-c-myc and anti his antibodies in 10 mM NaAc (pH 4.5) was then injected to Fc1 and Fc2 of channel 1 to channel 8 for 600 seconds at a flow rate of 10 μL/min. The chip was deactivated by 1 M ethanolamine-HCl (GE) at a flow rate of 10 μL/min for 420 seconds.
The anti-C5a scFv was diluted to 0.5 μg/ml, the other samples were diluted to 2 μg/ml in running buffer 1×HBS-EP+ (0.01 M HEPES, 0.15 M NaCl, 0.003 M EDTA, 0.05% surfactant P20). […] Diluted TES buffer was injected into channel Fc1 at a flow rate of 10 μL/min for 40 s, diluted scFv was injected into channel Fc2 at a flow rate of 10 μL/min for 40 s. […] 10 mM glycine pH 1.5 as regeneration buffer was injected following every dissociation phase. The chip was regenerated with 10 mM glycine pH 1.5.
The sensorgrams for reference channel Fc1 and buffer channel were subtracted from the test sensorgrams. Data were fitted by 1:1 kinetic binding model. Molecular weight of 8.4 kDa was used to calculate the molar concentration of the cyno antigen.

Binder	Inhibition of cell migration IC50 (nM), U937-C5aR cells (human C5a [1]) [nM]	Inhibition of calcium influx IC50 (nM), FLIPR, Experiment #1 (human C5a [2]) [nM]	Inhibition of calcium influx IC50 (nM), FLIPR, Experiment #2 (human C5a [2]) [nM]	affinity determined by ELISA, huC5 (human C5 [3]) [nM]	affinity determined by ELISA, huC5a (human C5a [4]) [nM]	Fold affinity (C5/C5a) (human C5 [5]) [fold]	Ratio between dissociation at pH 5.8 and 7.4 (human C5 [6])	Dissociation pH 5.8 (%) (human C5 [7])	Dissociation pH 7.4 (%) (human C5 [8])	IC50 (human C5a [9]) [nM]	IC50 (human C5a [10]) [nM]	Kd (cynomolgus antigen [11]) [nM]	koff (cynomolgus antigen [11]) [s⁻¹]	kon (cynomolgus antigen [11]) [M⁻¹ s⁻¹]	koff (human C5a [12]) [s⁻¹]	koff (cynomolgus antigen [13]) [s⁻¹]
16D10 (humanized anti-C5a IgG4 antibody) (antibody, V domains shown, also called WT (16D10); WT) VH: QVQLVQSGAEVKKPGSSVKVSCKASGYTFTDHIIHWMRQAPGQGLEWMGYIYPREGWTNYNENFKGRVTITADKSTSTAYMELSSLRSEDTAVYYCARERNLEYFDYWGQGTTVTVSS VL: DIVLTQSPASLAVSPGQRATITCKASQSVDYEGFNYMNWYQQKPGQPPKLLIYAASNLDSGVPARFSGSGSGTDFTLTINPVEAEDTANYYCQQSNEDPYTFGGGTKVEIKR	0.061	0.106	0.135	0.0288	0.269	9.3	-2.09	-2.42	1.16	2.03	5.9					
N92H (humanized anti-C5a IgG4 antibody) (antibody, V domains shown, Carries F29H in VH and N92H and Y96H in VL (Kabat); also called N92H antibody) VH: QVQLVQSGAEVKKPGSSVKVSCKASGYTHTDHIIHWMRQAPGQGLEWMGYIYPREGWTNYNENFKGRVTITADKSTSTAYMELSSLRSEDTAVYYCARERNLEYFDYWGQGTTVTVSS VL: DIVLTQSPASLAVSPGQRATITCKASQSVDYEGFNYMNWYQQKPGQPPKLLIYAASNLDSGVPARFSGSGSGTDFTLTINPVEAEDTANYYCQQSHEDPHTFGGGTKVEIKR	0.099	0.078	0.145	0.12	0.468	3.9	6.54	54.2	8.29	3.68	6.23					
N97H (humanized anti-C5a IgG4 antibody) (antibody, V domains shown, Carries F29H and N97H in VH and Y96H in VL (Kabat)) VH: QVQLVQSGAEVKKPGSSVKVSCKASGYTHTDHIIHWMRQAPGQGLEWMGYIYPREGWTNYNENFKGRVTITADKSTSTAYMELSSLRSEDTAVYYCARERHLEYFDYWGQGTTVTVSS VL: DIVLTQSPASLAVSPGQRATITCKASQSVDYEGFNYMNWYQQKPGQPPKLLIYAASNLDSGVPARFSGSGSGTDFTLTINPVEAEDTANYYCQQSNEDPHTFGGGTKVEIKR	0.07	0.072	0.138	0.0682	0.408	6	10.9	49	4.49	4.71	5.96					
NM2 (scFv, V domains shown, scFv expressed in E. coli BL21 (periplasmic extract)) VH: QVQLVQSGAEVKKPGSSVKVSCKASGYTFTDHIIHWMRQAPGQGLEWMGYIYPREGNTNYNENFKGRVTITADKSTSTAYMELSSLRSEDTAVYYCARERNLEYFDYWGQGTTVTVSS VL: DIVLTQSPASLAVSPGQRATITCKASQSVDYEGDNYMNWYQQKPGQPPKLLIYAASNLDSGVPARFSGSGSGTDFTLTINPVEAEDTANYYCQQSNEDPHTFGGGTKVEIK												190	0.133	702000	0.000736	0.0783

— US20240376189A1 (University of Pennsylvania, published 2024)
